The values below are quoted from earlier work in paper PMC9066409.

Read-outs that look alike come from different tables or passages of the source.

For orientation: Kd means the concentration at which binding is half-saturated.

The target of data set [1] is FGFR1 (Homo sapiens) (UniProt P11362).
Data set [2] has the same target. The source holds these as a separate data set.

Sequence of UniProt P11362 (P11362 22-822): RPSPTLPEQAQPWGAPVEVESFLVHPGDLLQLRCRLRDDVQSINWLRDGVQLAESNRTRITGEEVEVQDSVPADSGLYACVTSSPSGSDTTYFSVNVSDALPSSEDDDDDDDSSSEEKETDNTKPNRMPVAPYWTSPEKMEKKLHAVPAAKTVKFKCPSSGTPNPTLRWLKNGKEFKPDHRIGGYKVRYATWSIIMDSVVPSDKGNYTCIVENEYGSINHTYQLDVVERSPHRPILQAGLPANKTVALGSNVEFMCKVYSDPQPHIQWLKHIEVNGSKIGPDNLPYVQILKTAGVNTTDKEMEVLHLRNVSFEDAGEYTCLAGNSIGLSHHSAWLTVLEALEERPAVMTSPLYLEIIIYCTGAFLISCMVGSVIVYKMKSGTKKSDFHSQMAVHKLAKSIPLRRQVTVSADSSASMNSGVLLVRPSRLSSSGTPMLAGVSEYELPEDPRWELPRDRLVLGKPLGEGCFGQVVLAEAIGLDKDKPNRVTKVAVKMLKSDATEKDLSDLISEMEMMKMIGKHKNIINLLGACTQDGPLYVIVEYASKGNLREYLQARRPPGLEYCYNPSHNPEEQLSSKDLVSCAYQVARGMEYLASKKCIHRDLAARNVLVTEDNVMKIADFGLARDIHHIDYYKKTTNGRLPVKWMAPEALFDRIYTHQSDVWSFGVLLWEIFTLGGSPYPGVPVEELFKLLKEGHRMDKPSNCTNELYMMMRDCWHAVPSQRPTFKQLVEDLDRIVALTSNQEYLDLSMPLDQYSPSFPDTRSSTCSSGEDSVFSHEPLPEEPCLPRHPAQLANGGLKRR

In the case of FGF1 (from UniProt P05230), the Kd in the data set with FGFR1 (Homo sapiens) [1] was 136 nM.

Regarding FGF2 (from UniProt P09038), the Kd with FGFR1 (Homo sapiens) [2] was 62 nM.
